Measurements published in US20210122812A1 (Chugai, published 2021).

Legend:
MRA-hIgA [1] = biological target: T1, MRA-hIgA (human); assay: SPR (Biacore T200), antibody captured on Protein A/G, MRA-hIgA as analyte, 37 C, pH 7.4, 1.2 mM Ca, 1:1 binding model
T1 construct: also called human IgA; recombinant of human IgA
Experimental: (§1) Using Biacore™ T200 surface plasma resonance assay (GE Healthcare), the obtained antibodies were assessed for their binding activity to human IgA (dissociation constant KD (M)). The measurement was carried out using as a running buffer 0.05% Tween 20® (polyoxyethylene (20) sorbitan monolaurate), 20 mmol/l ACES, 150 mmol/l NaCl (pH 7.4 or pH 5.8) containing 3 μM or 1.2 mM CaCl₂, or 0.05% Tween 20®, 20 mmol/l ACES, 150 mmol/l NaCl (pH 8.0) containing 0.1 μM or 10 mM CaCl₂.
(§2) After an adequate amount of recombinant Protein A/G (Thermo Scientific) was immobilized onto the Sensor chip CM5 (GE Healthcare) by an amino coupling method, antibodies were allowed to bind onto the sensor chip. An appropriate concentration of MRA-hIgA (described in (1-1)) was injected as an analyte to interact with antibodies on the sensor chip. Then, the sensor chip was regenerated by injecting 10 mmol/l glycine-HCl, pH 1.5. The measurement was carried out at 37° C. From the assay result, the dissociation constant KD (M) was calculated based on curve-fitting analysis and equilibrium constant analysis using Biacore™ T200 Evaluation Software (GE Healthcare).

MRA-hIgA [2] = biological target: T1, MRA-hIgA; assay: SPR (Biacore T200), antibody captured on Protein A/G, MRA-hIgA as analyte, 37 C, pH 5.8, 3 uM Ca, steady state affinity
Experimental: as §1, §2

MRA-hIgA [3] = biological target: T1, MRA-hIgA; assay: SPR (Biacore T200), antibody captured on Protein A/G, MRA-hIgA as analyte, 37 C, pH 7.4, 3 uM Ca, steady state affinity
Experimental: as §1, §2

MRA-hIgA [4] = biological target: T1, MRA-hIgA; assay: SPR (Biacore T200), antibody captured on Protein A/G, MRA-hIgA as analyte, 37 C, pH 5.8, 1.2 mM Ca, steady state affinity
Experimental: as §1, §2

GC-hIgA-FLAG = biological target: T2, GC-hIgA-FLAG (human); assay: SPR (Biacore T200), antibody captured on Protein A/G on a CM5 chip, monomeric IgA injected as analyte, 37 C, running buffer pH 7.4 with 1.2 mM Ca; response normalized to capture ligand = 100 RU; analyte concentration not given [i]
T2 construct: Recombinant human IgA with a FLAG tag, not treated with SPDP; also called unaggregated hIgA; unaggregated human IgA
Experimental: The obtained antibodies were assessed for their binding to unaggregated hIgA and aggregated hIgA using Biacore™ T200 surface plasma resonance assay (GE Healthcare). The measurement was carried out using as a running buffer, 0.05% Tween 20®, 20 mmol/ACES, 150 mmol/l NaCl (pH 7.4 and pH 5.8) containing 3 μM or 1.2 mM CaCl₂.
After an adequate amount of recombinant Protein A/G (Thermo Scientific) was immobilized onto Sensor chip CM5 (GE Healthcare) by an amino coupling method, antibodies were allowed to bind onto the sensor chip. An appropriate concentration of hIgA (described in Example 1) was injected as an analyte to interact with antibodies on the sensor chip. Then, the sensor chip was regenerated by injecting 10 mmol/L Glycine-HCl, pH 1.5. The measurement was carried out at 37° C.

T1 sequence (VH, as listed by the source): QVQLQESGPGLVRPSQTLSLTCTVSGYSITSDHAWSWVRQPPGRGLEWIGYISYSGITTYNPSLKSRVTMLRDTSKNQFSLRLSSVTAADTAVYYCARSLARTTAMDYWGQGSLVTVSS
T2 sequence (VH, as listed by the source, chain 1 of 2): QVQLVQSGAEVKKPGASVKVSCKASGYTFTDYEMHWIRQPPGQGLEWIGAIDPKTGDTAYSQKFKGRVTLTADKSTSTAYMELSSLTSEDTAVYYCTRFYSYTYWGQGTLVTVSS
T2 sequence (VL, as listed by the source, chain 2 of 2): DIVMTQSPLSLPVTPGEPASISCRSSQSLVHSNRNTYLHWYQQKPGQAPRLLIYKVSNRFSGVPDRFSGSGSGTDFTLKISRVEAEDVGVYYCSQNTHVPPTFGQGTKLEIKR

Kd (MRA-hIgA [1]): 0.039 µM
Kd (MRA-hIgA [2]): 5 µM
Kd (MRA-hIgA [3]): 6.7 µM
Kd (MRA-hIgA [4]): 4 µM
binding result (GC-hIgA-FLAG): binds
B1: GA2-IgG1 (antibody, V domains shown)
VH: QVQLVQSGAEVKKPGSSVKVSCKASGGTFSSYAISWVRQAPGQGLEWMGGIIPIFGTANYAQKFQGRVTITADESTSTAYMELSSLRSEDTAVYYCARPRWETAISSDAFDIWGQGTMVTVSS
VL: DIQMTQSPSSLSASVGDRVTITCRASQSISDDLNWYQQKPGKAPKLLIYEASNLQSGVPSRFSGSGSGTDFTLTISSLQPEDFATYYCQQHSSSPLTFGQGTKVEIKR
notes: also called anti-hIgA antibody; anti-human IgA antibody
